Common to all, as to settings: both partners purified
The target of assay [1] is T1, AF488-labeled CUL3NTD (human, UniProt Q13618 1-388, I342R | L346D, AF488 by direct acylation with AF488-Tfp (sites not given)).
T1 construct: human CUL3, Uniprot Q13618, residues 1–388, vector pNIC-CTHF, with stabilising mutations I342R and L346D; also called AF488-CUL3NTD; source: E. coli BL21(DE3)-pRARE2, purified (nickel sepharose, TEV cleavage, SEC), labeled with AF488-Tfp; not shown: His6, C-terminal, cleaved; FLAG, C-terminal, cleaved
T1 sequence (Q13618 1-388 I342R/L346D): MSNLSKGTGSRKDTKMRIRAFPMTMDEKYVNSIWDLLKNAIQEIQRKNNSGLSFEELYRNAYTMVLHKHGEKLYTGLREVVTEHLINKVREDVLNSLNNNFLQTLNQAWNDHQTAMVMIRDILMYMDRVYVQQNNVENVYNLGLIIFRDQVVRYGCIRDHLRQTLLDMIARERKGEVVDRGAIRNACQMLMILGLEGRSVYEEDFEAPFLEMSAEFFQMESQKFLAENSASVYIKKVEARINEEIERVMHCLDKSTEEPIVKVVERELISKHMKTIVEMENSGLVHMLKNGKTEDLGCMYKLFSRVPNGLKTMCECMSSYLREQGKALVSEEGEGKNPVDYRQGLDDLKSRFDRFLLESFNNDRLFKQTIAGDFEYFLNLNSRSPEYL
Put plainly: FRET or BRET; TR-FRET protein displacement assay: CoraFluor-1-labeled KLHL11_(BTB-BACK) + AF488-labeled CUL3NTD, unlabeled protein titrated (cmax 25 μM); assay buffer pH 7.5, 2 h, room temperature; KD from IC50 by Cheng-Prusoff. In general terms: In BRET a luciferase serves as donor, and the signal depends on an acceptor being close.

The target of assay [2] is T1, AF488-labeled CUL3NTD. The experiment in a line: FRET or BRET; TR-FRET protein displacement assay: CoraFluor-1-labeled KEAP1FL + AF488-labeled CUL3NTD, unlabeled protein titrated (cmax 25 μM); assay buffer pH 7.5, 2 h, room temperature; KD from IC50 by Cheng-Prusoff.
The target of assay [3] is biotinylated CUL3NTD (residues 1–389) (human, UniProt Q13618 1-389, I342R | L346D, biotin (on the avi tag)). Put plainly: BLI; biotinylated CUL3NTD immobilised on streptavidin tips, KEAP1_(BTB-3-box) in serial dilution; 50 mM HEPES, 300 mM NaCl, 0.5 mM TCEP, 10 mM DTT, 0.01% TWEEN-20; steady-state and kinetic fits, 1:1 model; apparent. For orientation: In BLI a coated tip is dipped into the sample, and binding shifts an interference pattern.
biotinylated CUL3NTD (residues 1–389), sequence (Q13618 1-389 I342R/L346D): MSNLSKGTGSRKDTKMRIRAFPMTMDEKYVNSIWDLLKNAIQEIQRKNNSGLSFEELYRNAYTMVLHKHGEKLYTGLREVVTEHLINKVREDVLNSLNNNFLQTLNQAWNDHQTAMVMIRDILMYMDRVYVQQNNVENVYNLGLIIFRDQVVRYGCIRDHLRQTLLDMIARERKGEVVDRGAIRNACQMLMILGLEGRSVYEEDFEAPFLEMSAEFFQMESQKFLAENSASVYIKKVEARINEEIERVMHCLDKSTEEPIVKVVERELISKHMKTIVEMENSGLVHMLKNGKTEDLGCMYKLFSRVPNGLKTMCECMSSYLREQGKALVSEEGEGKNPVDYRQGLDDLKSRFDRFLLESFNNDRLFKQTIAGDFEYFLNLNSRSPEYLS

For assay [4], the target named is T2, CUL3NTD (CUL3 N-terminal domain, residues 1–388, I342R L346D) (human, UniProt Q13618 1-388, I342R | L346D).
T2 construct: human CUL3, Uniprot Q13618, residues 1–388, vector pNIC-CTHF, with stabilising mutations I342R and L346D (split-n-express); source: E. coli BL21(DE3)-pRARE2, purified (nickel sepharose, TEV cleavage, SEC); not shown: His6, C-terminal, cleaved; FLAG, C-terminal, cleaved
T2 sequence (Q13618 1-388 I342R/L346D): as the sequence (Q13618 1-388 I342R/L346D) above
Put plainly: crystal structure; KEAP1_(BTB-3-box) and CUL3NTD mixed 1:1, purified by SEC; sitting drop at 20 °C, 20% PEG 3350, 10% ethylene glycol, 0.2 M potassium citrate tribasic; 3.45 Å, space group C2 2 2_(1).

Where “and” joins values, the source holds several entries; their conditions need not be identical. Identical values can stand only once.

Experimental findings from paper PMC10564622 (Free Radical Biology & Medicine, 2023) are described below.

B1: KEAP1_(BTB-3-box) (human KEAP1 residues 48–213) (domain or fragment, UniProt Q14145 48-213, looked up)
chain: GNRTFSYTLEDHTKQAFGIMNELRLSQQLCDVTLQVKYQDAPAAQFMAHKVVLASSSPVFKAMFTNGLREQGMEVVSIEGIHPKVMERLIEFAYTASISMGEKCVLHVMNGAVMYQIDSVVRACSDFLVQQLDPSNAIGIANFAEQIGCVELHQRAREYIYMHFGE
notes: human KEAP1 (KLHL19), Uniprot Q14145, residues 48–213 (BTB and 3-box), vector pNIC28-Bsa4; Homodimer through the BTB domain by crystallographic symmetry; Residues 51–204 modelled in the structure; also called BTB and 3-box domains of human KEAP1; source: E. coli BL21(DE3)-pRARE2, purified (nickel sepharose, TEV cleavage, SEC); not shown: His6, N-terminal, cleaved
Take B1: the Kd in assay [1] was 0.72 µM; in assay [2], 1.04 µM; in assay [3], 1.7 µM and 1.4 µM. The “stoichiometry N” value in assay [4] was 1 KEAP1 per CUL3 (printed as 2:2).

By stoichiometry N is commonly meant a count of units in the complex or per binding partner.
